Drawing on paper PMC12654638, this text covers stoichiometry N for one substance.

The experiment addresses carotenoependymin-Purple1 (Cep-Purple1) (Haliclona sp. (purple sponge)). Nature of the experiment: SEC; HPLC size-exclusion chromatography (TSKgel G3000SWXL), calibrated with molecular standards; native protein estimated at 41-43 kDa against 23 kDa on SDS-PAGE.

By stoichiometry N is commonly meant a count of units in the complex or per binding partner. For “carotenoependymin-Purple1 (Cep-Purple1) (natural protein)”, the stoichiometry N was 2.
